The values that follow are results of earlier work, collected in paper PMC3711752.

As usually defined, the Kd is the constant that tells how readily two partners part at equilibrium.

The target of this data set is EGF receptor (Homo sapiens) (UniProt P00533).

Chain of EGF (P01133 971-1023): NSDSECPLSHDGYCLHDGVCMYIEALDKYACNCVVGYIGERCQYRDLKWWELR

In the case of EGF (from UniProt P01133), the Kd is 3 nM.
